Laboratory results taken from article PMC12416549 (2024).
Numbering of substitutions follows the chain as printed. Names and notes keep the numbering of the source.

T1: TNFR1 (Homo sapiens, UniProt P19438)
T1 chain: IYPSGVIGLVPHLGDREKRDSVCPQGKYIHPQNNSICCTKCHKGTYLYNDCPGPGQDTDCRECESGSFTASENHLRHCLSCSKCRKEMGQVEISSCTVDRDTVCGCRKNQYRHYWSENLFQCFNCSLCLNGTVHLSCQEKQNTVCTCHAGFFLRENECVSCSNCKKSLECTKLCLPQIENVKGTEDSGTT

B1: L6M (designed binder)
chain: MTLQEMLREEALRRAEAEAFRYALELLAEKFPEQKEYLLDLAEEIESQIRSLSGVDVEDVRKFLDKEWAWVKELLAEHPAELAEVEAARAARLAELRAEVEAKVAA
B2: L12A (designed binder)
chain: B1 chain with M6L, L12A
B3: A28R (designed binder)
chain: B1 chain with M6L, A28R
B4: A88C (designed binder)
chain: B1 chain with M6L, A88C
B5: Q34E (designed binder)
chain: B1 chain with M6L, Q34E
B6: S53C (designed binder)
chain: B1 chain with M6L, S53C
B7: H78E (designed binder)
chain: B1 chain with M6L, H78E
B8: E95R (designed binder)
chain: B1 chain with M6L, E95R
B9: E16R (designed binder)
chain: B1 chain with M6L, E16R
B10: E86S (designed binder)
chain: B1 chain with M6L, E86S
B11: A106S (designed binder)
chain: B1 chain with M6L, A106S
B12: E81Y (designed binder)
chain: B1 chain with M6L, E81Y
B13: Y22I (designed binder)
chain: B1 chain with M6L, Y22I
B14: E29T (designed binder)
chain: B1 chain with M6L, E29T
B15: D56K (designed binder)
chain: B1 chain with M6L, D56K
B16: L38G (designed binder)
chain: B1 chain with M6L, L38G
B17: L52I (designed binder)
chain: B1 chain with M6L, L52I
B18: G54N (designed binder)
chain: B1 chain with M6L, G54N
B19: D59H (designed binder)
chain: B1 chain with M6L, D59H
B20: K35Q (designed binder)
chain: B1 chain with M6L, K35Q
B21: L3H (designed binder)
chain: B1 chain with L3H, M6L
B22: A69P (designed binder)
chain: B1 chain with M6L, A69P
B23: E33K (designed binder)
chain: B1 chain with M6L, E33K
B24: L82R (designed binder)
chain: B1 chain with M6L, L82R
B25: E46L (designed binder)
chain: B1 chain with M6L, E46L
B26: A106E (designed binder)
chain: B1 chain with M6L, A106E
B27: I45R (designed binder)
chain: B1 chain with M6L, I45R
B28: E43P (designed binder)
chain: B1 chain with M6L, E43P
B29: A88G (designed binder)
chain: B1 chain with M6L, A88G
B30: R89L (designed binder)
chain: B1 chain with M6L, R89L
B31: E84S (designed binder)
chain: B1 chain with M6L, E84S
B32: A69Y (designed binder)
chain: B1 chain with M6L, A69Y
B33: E44L (designed binder)
chain: B1 chain with M6L, E44L
B34: A105R (designed binder)
chain: B1 chain with M6L, A105R
B35: F31N (designed binder)
chain: B1 chain with M6L, F31N
B36: A87I (designed binder)
chain: B1 chain with M6L, A87I
B37: F63H (designed binder)
chain: B1 chain with M6L, F63H
B38: E58V (designed binder)
chain: B1 chain with M6L, E58V
B39: L7W (designed binder)
chain: B1 chain with M6L, L7W
B40: V71Y (designed binder)
chain: B1 chain with M6L, V71Y
B41: I45M (designed binder)
chain: B1 chain with M6L, I45M
B42: K66M (designed binder)
chain: B1 chain with M6L, K66M
B43: V71L (designed binder)
chain: B1 chain with M6L, V71L
B44: L82D (designed binder)
chain: B1 chain with M6L, L82D
B45: A80N (designed binder)
chain: B1 chain with M6L, A80N
B46: P79D (designed binder)
chain: B1 chain with M6L, P79D
B47: A11V (designed binder)
chain: B1 chain with M6L, A11V
B48: R61C (designed binder)
chain: B1 chain with M6L, R61C
B49: H78W (designed binder)
chain: B1 chain with M6L, H78W
B50: A76Q (designed binder)
chain: B1 chain with M6L, A76Q
B51: L3S (designed binder)
chain: B1 chain with L3S, M6L
B52: Q48I (designed binder)
chain: B1 chain with M6L, Q48I
B53: R14F (designed binder)
chain: B1 chain with M6L, R14F
B54: F20W (designed binder)
chain: B1 chain with M6L, F20W
B55: V55C (designed binder)
chain: B1 chain with M6L, V55C
B56: A23G (designed binder)
chain: B1 chain with M6L, A23G
B57: E16V (designed binder)
chain: B1 chain with M6L, E16V
B58: A87R (designed binder)
chain: B1 chain with M6L, A87R
B59: E5M (designed binder)
chain: B1 chain with E5M, M6L

Biological target: T1, TNFR1
Assay: yeast display SC50

apparent Kd (screen)	Binder
1860 pM	B1
790 pM	B2
12500 pM	B3
653 pM	B4
653 pM	B5
24400 pM	B6
653 pM	B7
593 pM	B8
2050 pM	B9
869 pM	B10
653 pM	B11
446 pM	B12
956 pM	B13
653 pM	B14
2250 pM	B15
24400 pM	B16
539 pM	B17
1400 pM	B18
869 pM	B19
718 pM	B20

apparent Kd (screen)	Binder
2250 pM	B21
16700 pM	B22
1050 pM	B23
1860 pM	B24
539 pM	B25
790 pM	B26
11400 pM	B27
1160 pM	B28
790 pM	B29
790 pM	B30
653 pM	B31
1050 pM	B32
13800 pM	B33
718 pM	B34
593 pM	B35
869 pM	B36
6430 pM	B37
490 pM	B38
24400 pM	B39
2480 pM	B40

apparent Kd (screen)	Binder
12500 pM	B41
593 pM	B42
593 pM	B43
5840 pM	B44
1270 pM	B45
539 pM	B46
490 pM	B47
956 pM	B48
446 pM	B49
446 pM	B50
15200 pM	B51
5840 pM	B52
653 pM	B53
4830 pM	B54
790 pM	B55
490 pM	B56
446 pM	B57
446 pM	B58
593 pM	B59
